Experimental data reported in PMC7608808 (Science Advances, 2020).
Like-named read-outs stand apart in the source and are kept apart here.

Experiments:
cryo-EM structure [1] = biological target: the molecule itself; assay: cryo-EM structure
cryo-EM structure [2] = biological target: the molecule itself; assay: cryo-EM structure; remark: listed apart in the source

Row | Protein | binding result (cryo-EM structure [1]) | binding result (cryo-EM structure [2])
1 | SugC (natural protein) MAEIVLDRVTKSYPDGAGGVRAAVKEFSMTIADGEFIILVGPSGCGKSTTLNMIAGLEEITSGELRIGGERVNEKAPKDRDIAMVFQSYALYPHMTVRQNIAFPLTLAKVPKAEIAAKVEETAKILDLSELLDRKPGQLSGGQRQRVAMGRAIVRSPKAFLMDEPLSNLDAKLRVQMRAEISRLQDRLGTTTVYVTHDQTEAMTLGDRVVVMLAGEVQQIGTPDELYSSPANLFVAGFIGSPAMNFFPATRTDVGVRLPFGEVTLTPHMLDLLDKQARPENIIVGIRPEHIEDSALLDGYARIRALTFSVRADIVESLGADKYVHFTTEGAGAESAQLAELAADSGAGTNQFIARVSADSRVRTGEQIELAIDTTKLSIFDAATGLNLTRDITPTDPTEAAGPDAG | binds | –
2 | SugC (E164Q) (natural protein) MAEIVLDRVTKSYPDGAGGVRAAVKEFSMTIADGEFIILVGPSGCGKSTTLNMIAGLEEITSGELRIGGERVNEKAPKDRDIAMVFQSYALYPHMTVRQNIAFPLTLAKVPKAEIAAKVEETAKILDLSELLDRKPGQLSGGQRQRVAMGRAIVRSPKAFLMDQPLSNLDAKLRVQMRAEISRLQDRLGTTTVYVTHDQTEAMTLGDRVVVMLAGEVQQIGTPDELYSSPANLFVAGFIGSPAMNFFPATRTDVGVRLPFGEVTLTPHMLDLLDKQARPENIIVGIRPEHIEDSALLDGYARIRALTFSVRADIVESLGADKYVHFTTEGAGAESAQLAELAADSGAGTNQFIARVSADSRVRTGEQIELAIDTTKLSIFDAATGLNLTRDITPTDPTEAAGPDAG | – | binds
